{
  "source": "patent US12291578B2",
  "about": "“Anti-matrix metalloproteinase 7 (MMP-7) inhibitory antibody and uses thereof” (Yeda Research and Development Co. Ltd., priority 2019, dated 2025)",
  "molecules": {"B1": {"name": "GSM-192: monoclonal antibody to MMP-7 binding the catalytic domain, not the zymogen; VL SEQ ID NO: 1, VH SEQ ID NO: 2 (antibody, V domains shown)", "VH": "EVQLQQSGPELVKPGASVKIPCKASGYTFTDYNMDWMKQSHGKSLEWIGHINPNNGGTFYNQKFKDKATFIVDKSSNTAYMELRSLTSEDTAVYFCARGGGLRRGPFAYWGQGTLVTVS", "VL": "DIVTQSPASLAVSLGQRATISCRASESFDSYGNTFVHWYQQKPGQPPKLLIYLVSNLESGVPAGFRGRGSRTDFTLTIDPVEADDAATYYCQQNNEDPYTFGGGTKLEIKRA", "modifications": "GSM-192 Heavy Chain Sequence; GSM-192 Light Chain Sequence"}},
  "key": {"[1]": {"molecular_target": "T1, MMP-9 (Homo sapiens, UniProt P14780)", "T1 sequence (P14780 94-707, species assumed)": "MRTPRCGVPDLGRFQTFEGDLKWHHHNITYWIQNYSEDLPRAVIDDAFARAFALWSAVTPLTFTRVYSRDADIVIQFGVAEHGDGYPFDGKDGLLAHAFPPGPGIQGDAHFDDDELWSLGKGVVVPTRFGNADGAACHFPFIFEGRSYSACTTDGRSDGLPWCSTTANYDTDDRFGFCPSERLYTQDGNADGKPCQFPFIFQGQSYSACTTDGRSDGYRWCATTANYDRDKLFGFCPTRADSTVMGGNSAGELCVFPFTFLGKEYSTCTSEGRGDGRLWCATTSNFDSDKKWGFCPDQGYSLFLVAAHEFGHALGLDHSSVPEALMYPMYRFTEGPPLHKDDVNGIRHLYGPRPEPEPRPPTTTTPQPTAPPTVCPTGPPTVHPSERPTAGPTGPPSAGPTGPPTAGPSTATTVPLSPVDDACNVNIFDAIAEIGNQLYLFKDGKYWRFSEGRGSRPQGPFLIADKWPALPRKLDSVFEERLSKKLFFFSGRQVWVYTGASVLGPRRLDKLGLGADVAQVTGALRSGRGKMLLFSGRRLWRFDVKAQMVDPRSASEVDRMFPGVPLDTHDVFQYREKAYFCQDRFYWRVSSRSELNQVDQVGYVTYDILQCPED", "test": "ELISA binding, cross-reactivity"}, "[2]": {"molecular_target": "MMP-12 (Homo sapiens, UniProt P39900)", "sequence (P39900 106-470)": "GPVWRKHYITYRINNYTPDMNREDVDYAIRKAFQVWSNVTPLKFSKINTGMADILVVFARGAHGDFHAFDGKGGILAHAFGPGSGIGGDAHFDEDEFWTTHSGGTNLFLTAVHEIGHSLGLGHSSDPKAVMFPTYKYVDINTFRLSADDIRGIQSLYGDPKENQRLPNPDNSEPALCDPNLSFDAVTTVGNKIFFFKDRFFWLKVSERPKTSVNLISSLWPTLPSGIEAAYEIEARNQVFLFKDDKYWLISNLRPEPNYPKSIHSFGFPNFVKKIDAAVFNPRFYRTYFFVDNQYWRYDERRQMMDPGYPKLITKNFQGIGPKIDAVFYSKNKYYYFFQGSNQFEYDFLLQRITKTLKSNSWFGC", "test": "Enzymatic activity of related MMPs (fluorogenic peptide)", "format": "biochemical", "conditions": "in vitro", "description": "(§1) MMP-7 enzymatic kinetic assay: The enzymatic activity of MMP-7 in the presence of GSM-192 Fab was measured at 37° C. by monitoring the hydrolysis of fluorogenic peptide Mca-Pro-Leu-Gly-Leu-Dpa-Ala-Arg-NH2 (SEQ ID NO: 10) at λex=340 nm and […] as described previously^30. A range of different concentrations of GSM-192 Fab (0-200 nM) were incubated with 10 nM of MMP-7 in 50 mM Tris-HCl buffer (pH 7.5 at 37° C.), 100 mM NaCl, 5 mM CaCl2, and 0.05% Brij-35 for 2 h at 37° C. The enzymatic reaction was initiated by addition of the fluorogenic peptide to a final concentration of 10 μM. Fluorescence was recorded immediately and continuously for 30 min.\n(§2) Remarkably, considering that the immunization booster also included the common zinc motif, the antibody is fully selective for MMP-7. The effect of GSM-192 Fab fragment on the enzymatic activity of human MMP-7 was examined in vitro using a short fluorogenic peptide according to a standard protocol. The enzymatic activity of recombinant active MMP-7 was measured in the presence of increasing concentrations of the Fab fragment of GSM-192. […] Simultaneously the effect of the antibody on catalytic activity of related MMPs was measured."}, "[3]": {"molecular_target": "MMP-14 (Homo sapiens, UniProt P50281)", "test": "Enzymatic activity of related MMPs (fluorogenic peptide)", "format": "biochemical", "conditions": "in vitro", "description": "as §1, §2"}, "[4]": {"molecular_target": "T1, MMP-9", "test": "Enzymatic activity of related MMPs (fluorogenic peptide)", "format": "biochemical", "conditions": "in vitro", "description": "as §1, §2"}, "[5]": {"molecular_target": "T2, activated MMP-7 recombinant enzyme (Homo sapiens, UniProt P09237)", "T2 sequence (P09237 95-267)": "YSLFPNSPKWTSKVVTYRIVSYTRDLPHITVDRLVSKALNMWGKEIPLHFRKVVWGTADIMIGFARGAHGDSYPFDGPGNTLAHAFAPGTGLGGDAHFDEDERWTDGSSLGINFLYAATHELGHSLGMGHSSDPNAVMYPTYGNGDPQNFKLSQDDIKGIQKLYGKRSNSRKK", "test": "Dot blot, activated enzyme", "format": "binding", "conditions": "different concentrations of enzyme", "description": "A dot blot was performed by immobilizing 1, 1.5 and 2 μg zymogen and activated MMP-7 recombinant enzyme on nitrocellulose membrane pre wetted with TBST using a vacuum based manifold 96 well dot-blot system (GE 10447900 Minifold dot blot). The blocking was performed for 1 hour at room temperature with 3% BSA in TBST. The membrane was then probed for binding by antibody eluted in the earlier step by incubating overnight. The anti MMP-7 mAb used was at 2 ug/ml concentration in TBST. The membrane after 3 washes in TBST was incubated with goat anti mouse HRP antibody and developed using ECL to determine the selectivity of binding towards catalytic form only."}},
  "data": [
    {"molecule": "B1", "values": [
      {"measurement": "crossreactivity to MMP-9", "setting": "[1]", "value": "did not show crossreactivity"},
      {"measurement": "effect on catalytic activity of MMP-12", "setting": "[2]", "value": "negligible or no effect"},
      {"measurement": "effect on catalytic activity of MMP-14", "setting": "[3]", "value": "negligible or no effect"},
      {"measurement": "effect on catalytic activity of MMP-9", "setting": "[4]", "value": "negligible or no effect"},
      {"measurement": "binding to activated form of MMP-7", "setting": "[5]", "value": "bound to the catalytic domain"},
      {"measurement": "binding to activated form of MMP-7", "setting": "[5]; listed as anti MMP-7 Ab", "value": "selective binding"}
    ]}
  ]
}
